Reference: patent US20210155691A1, “METHODS OF PREVENTING OR TREATING NON-HEMATOPOIETIC SLAMF7 POSITIVE AND SLAMF7 NEGATIVE CANCERS” (ADAERATA, LIMITED PARTNERSHIP, priority 2018, published 2021)

How the values were obtained:
thymocytes = assay: Induction of apoptosis in thymocytes (annexin V); assay type: cell-based, mouse; conditions: 1 μM; 10 hours at 37° C.; thymocytes from C57BL/6 mice; data not shown
[1] = molecular target: T1, mouse CD11b (integrin alphaM, alpha subunit of Mac-1) (mouse, UniProt P05555 17-1153); assay: anti-CD11b immunoprecipitation from BMDM lysates, mass spectrometry
T1 construct: whole, on cells; Endogenous protein in macrophage lysates; It forms Mac-1 together with CD18; also called Mac-1 (CD11b); CR3 alpha subunit
Description: Authenticated cells. (FIG. 9D) Lysates from the mouse macrophage cell line RAW264.7 expressing GFP alone or in combination with a FLAG-tagged version of mouse SLAMF7 (FLAG-SLAMF7) were immunoprecipitated with anti-FLAG. They were then probed by immunoblotting with anti-CD11b (Mac-1) or anti-SLAMF7. Total cell lysates were analyzed in parallel. (FIG. 9E) Co-localization of SLAMF7 and CD11b in RAW264.7 cells expressing GFP alone or with FLAG-SLAMF7 assessed by immunofluorescence. Semi-confluent RAW264.7 cells expressing GFP alone (bottom) or in combination with FLAG-SLAMF7 (top) were fixed and stained with antibodies against FLAG, CD11b (Mac-1) or CD18, as detailed in Example 1. Staining was detected by confocal microscopy. Scale bar, 5 μm. […] (FIG. 9F) As in FIG. 9E, except that only RAW264.7 cells expressing FLAG-SLAMF7 were analyzed and that antibodies coupled to different fluorophores were used. […] (FIGS. 9G-A and 9G-B) RAW264.7 derivatives expressing GFP alone or in combination with FLAG-SLAMF7 were analyzed by flow cytometry, using antibodies directed against FLAG and SLAMF7 (dotted lines). […]
Immunoprecipitations, mass spectrometry, immunoblots. […] In brief, immunoprecipitated proteins were digested with trypsin (Promega, Madison, Wis.) and analyzed by LC-MS/MS on a LTQ Orbitrap™ Velos (ThermoFisher Scientific, Bremen, Germany) equipped with a Proxeon Nanoelectrospray™ ion source. […]

T1 sequence (P05555 17-1153): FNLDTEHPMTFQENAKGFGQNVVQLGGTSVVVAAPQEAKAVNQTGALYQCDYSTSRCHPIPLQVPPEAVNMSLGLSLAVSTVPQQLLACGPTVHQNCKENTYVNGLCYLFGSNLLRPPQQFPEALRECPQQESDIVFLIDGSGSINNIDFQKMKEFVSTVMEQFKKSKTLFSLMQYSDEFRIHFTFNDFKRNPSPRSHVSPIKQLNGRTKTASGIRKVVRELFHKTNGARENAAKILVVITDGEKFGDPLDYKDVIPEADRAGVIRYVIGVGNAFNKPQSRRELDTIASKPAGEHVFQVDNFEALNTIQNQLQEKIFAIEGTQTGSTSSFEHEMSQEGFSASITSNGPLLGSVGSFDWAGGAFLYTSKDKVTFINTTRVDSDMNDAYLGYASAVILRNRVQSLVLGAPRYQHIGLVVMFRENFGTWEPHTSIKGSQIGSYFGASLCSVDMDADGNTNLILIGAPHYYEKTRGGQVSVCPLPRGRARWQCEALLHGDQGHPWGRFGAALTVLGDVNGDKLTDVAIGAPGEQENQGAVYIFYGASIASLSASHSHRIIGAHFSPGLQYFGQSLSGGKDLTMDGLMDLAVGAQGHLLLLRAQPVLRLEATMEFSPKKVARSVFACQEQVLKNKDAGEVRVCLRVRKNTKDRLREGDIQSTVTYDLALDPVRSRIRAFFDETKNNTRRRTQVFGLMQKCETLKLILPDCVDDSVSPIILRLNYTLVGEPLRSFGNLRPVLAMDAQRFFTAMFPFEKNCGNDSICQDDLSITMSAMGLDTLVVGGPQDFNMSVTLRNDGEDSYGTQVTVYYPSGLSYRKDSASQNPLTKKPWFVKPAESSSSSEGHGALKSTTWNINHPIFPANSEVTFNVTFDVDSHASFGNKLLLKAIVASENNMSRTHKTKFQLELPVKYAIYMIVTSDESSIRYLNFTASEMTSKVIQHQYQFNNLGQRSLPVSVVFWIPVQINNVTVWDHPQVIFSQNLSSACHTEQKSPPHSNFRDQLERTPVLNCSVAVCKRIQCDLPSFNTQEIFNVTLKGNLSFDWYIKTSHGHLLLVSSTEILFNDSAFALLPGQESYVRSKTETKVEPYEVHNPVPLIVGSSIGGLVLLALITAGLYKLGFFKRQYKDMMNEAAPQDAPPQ

C[C@@H]1C[C@H]2[C@@H]3CCC4=CC(=O)C=C[C@]4(C)[C@@]3(F)[C@@H](O)C[C@]2(C)[C@@]1(O)C(=O)CO [dexamethasone]
cells becoming apoptotic (annexin V-positive) (thymocytes): about 70%

B1: mouse CD64 (Fc receptor) (receptor, UniProt P26151 25-404, looked up)
chain: EVVNATKAVITLQPPWVSIFQKENVTLWCEGPHLPGDSSTQWFINGTAVQISTPSYSIPEASFQDSGEYRCQIGSSMPSDPVQLQIHNDWLLLQASRRVLTEGEPLALRCHGWKNKLVYNVVFYRNGKSFQFSSDSEVAILKTNLSHSGIYHCSGTGRHRYTSAGVSITVKELFTTPVLRASVSSPFPEGSLVTLNCETNLLLQRPGLQLHFSFYVGSKILEYRNTSSEYHIARAEREDAGFYWCEVATEDSSVLKRSPELELQVLGPQSSAPVWFHILFYLSVGIMFSLNTVLYVKIHRLQREKKYNLEVPLVSEQGKKANSFQQVRSDGVYEEVTATASQTTPKEAPDGPRSSVGDCGPEQPEPLPPSDSTGAQTSQS
notes: whole, on cells; Endogenous protein in macrophage lysates
binding result [1]: no binding

B2: mouse CD16 (Fc receptor) (receptor, UniProt P08508 31-261, looked up)
chain: ALPKAVVKLDPPWIQVLKEDMVTLMCEGTHNPGNSSTQWFHNGRSIRSQVQASYTFKATVNDSGEYRCQMEQTRLSDPVDLGVISDWLLLQTPQRVFLEGETITLRCHSWRNKLLNRISFFHNEKSVRYHHYKSNFSIPKANHSHSGDYYCKGSLGSTQHQSKPVTITVQDPATTSSISLVWYHTAFSLVMCLLFAVDTGLYFYVRRNLQTPREYWRKSLSIRKHQAPQDK
notes: as for B1
binding result [1]: no binding
